Measurements taken from patent US20230383245A1, “CULTURE MEDIUM COMPOSITION” (NISSAN CHEMICAL CORPORATION, priority 2014, published 2023).

Assay: Viscosity measurement and state of medium composition (E type viscometer)
Format: physicochemical
Description: Deacylated gellan gum (KELCOGEL CG-LA, manufactured by SANSHO Co., Ltd.) was suspended in pure water to 0.4% (w/v), and dissolved by stirring with heating at 90° C. This aqueous solution was allowed to cool to room temperature with stirring, and sterilized at 121° C. for 20 min in an autoclave. A 2-fold concentration of DMEM/F-12 medium (manufactured by Aldrich, 50 mL) and sterilization water (47.5 mL) were placed in a 300 mL tall beaker with stirring by a homomixer (3000 rpm) at room temperature, aqueous deacylated gellan gum solution (2.5 mL) was added, and the mixture was continuously stirred for 1 min to prepare a deacylated gellan gum medium composition with a final concentration of 0.01%. Medium compositions added with aqueous deacylated gellan gum solution with final concentrations of 0.02, 0.03 and 0.05% (w/v) were similarly prepared. The viscosity of the medium compositions was measured using an E type viscometer (manufactured by Toki Sangyo Co., Ltd., Viscometer TVE-22 L, standard roter 1°34′×R24) under 37° C. condition at 100 rpm for 5 min.
The medium compositions prepared above were subjected to a suspension test of HeLa cell spheres and a viscosity measurement, in the same manner as with the deacylated gellan gum-containing medium. The viscosity of 1.0% (w/v) methylcellulose was measured at 50 rpm due to the measurement range of the apparatus.
In the same manner as in Reference Experimental Example 2, spheres of HeLa cells were formed, and several tens of the spheres were added to each medium (1 mL) prepared above, the mixture was stood still at 37° C. for 1 hr, and the suspended state of the sphere cells was visually observed. […] Furthermore, it was confirmed that addition of an equal amount of the medium to the cell suspension and centrifugation (300 to 400G, for 5 min) thereof result in sedimentation and recovery of the spheres of HeLa cells.
By a method similar to that for the polysaccharide mixture of Reference Experimental Example 9, DMEM/F-12 media containing deacylated gellan gum at a final concentration of 0.005, 0.01% (w/v) and other polysaccharide were prepared. The final concentration of polysaccharide was set to 0.1% (w/v) for xanthan gum, sodium alginate, locust bean gum, 0.2% (w/v) for methylcellulose, and 0.05% (w/v) for K-carageenan and diutan gum. The state of each medium composition and the viscosity measured by a method similar to that in Analysis Example 1 are shown in Tables 11-16.

## collagen
Concentration 0.01 %(w/v) in DMEM/F-12
  state: liquid
Concentration 0.01 %(w/v) in DMEM/F-12, 37° C., 100 rpm
  viscosity: 1.18 mPa · s
Concentration 0.05 %(w/v) in DMEM/F-12
  state: liquid/solid (gel)
Concentration 0.1 %(w/v) in DMEM/F-12
  state: solid (gel)
Concentration 0.2 %(w/v) in DMEM/F-12
  state: solid (gel)
